Assay results published in the Immune Epitope Database (IEDB).

Key:
HLA-A*26:01 = assay: IEDB peptide-MHC binding, purified MHC/competitive/fluorescence; filed as Kd, often an IC50 or EC50 that approximates it; ≥ and ≤ were set here for values at or beyond the usual limits of such assays
HLA-A*69:01 = assay: as above; details: source organism: Orthohantavirus andesense
HLA-B*15:17 = assay: as above; details: source organism: Orthohantavirus andesense
HLA-B*27:03 = assay: as above; details: source organism: Orthohantavirus andesense
HLA-B*57:01 = assay: as above; details: source organism: Orthohantavirus andesense
HLA-B*51:01 = assay: as above; details: source organism: Orthohantavirus andesense
HLA-B*18:01 = assay: as above; details: source organism: Orthohantavirus andesense
HLA-A*03:01 = assay: IEDB peptide-MHC binding, purified MHC/direct/fluorescence; filed as Kd, often an IC50 or EC50 that approximates it; ≥ and ≤ were set here for values at or beyond the usual limits of such assays; details: source organism: Orthohantavirus andesense
HLA-C*03:03 = assay: as above; details: source organism: Orthohantavirus andesense
HLA-A*02:19 = assay: as above; details: source organism: Orthohantavirus andesense
HLA-A*24:03 [1] = assay: as above; details: source organism: Orthohantavirus andesense
HLA-A*29:02 = assay: as above; details: source organism: Orthohantavirus andesense
HLA-A*68:02 = assay: as above; details: source organism: Orthohantavirus andesense
HLA-A*02:01 = assay: as above; details: source organism: Orthohantavirus andesense
HLA-A*02:12 = assay: as above; details: source organism: Orthohantavirus andesense
HLA-C*07:02 = assay: as above
HLA-A*24:03 [2] = assay: IEDB peptide-MHC binding, purified MHC/competitive/fluorescence; filed as Kd, often an IC50 or EC50 that approximates it; ≥ and ≤ were set here for values at or beyond the usual limits of such assays; details: source organism: Escherichia coli F11
HLA-B*15:01 = assay: as above; details: source organism: Escherichia coli F11
HLA-A*01:01 = assay: as above; details: source organism: Escherichia coli F11
HLA-C*06:02 = assay: IEDB peptide-MHC binding, purified MHC/direct/fluorescence; filed as Kd, often an IC50 or EC50 that approximates it; ≥ and ≤ were set here for values at or beyond the usual limits of such assays; details: source organism: Escherichia coli F11
[3] = source organism: Escherichia coli F11

YLIPSVTSL gave a Kd (HLA-A*26:01; source organism: Orthohantavirus andesense) of no less than 20 µM, a Kd (HLA-A*69:01) of no less than 20 µM and a Kd (HLA-B*15:17) of no less than 20 µM. The Kd (HLA-B*27:03) was no less than 20 µM, the Kd (HLA-B*57:01) was no less than 20 µM and the Kd (HLA-B*51:01) was no less than 20 µM. For the same sequence, the Kd (HLA-B*18:01) was no less than 20 µM, the Kd (HLA-A*03:01) was no less than 20 µM and the Kd (HLA-C*03:03) was no more than 0.001 µM. It also gave a Kd (HLA-A*02:19) of no less than 20 µM, a Kd (HLA-A*24:03 [1]) of no less than 20 µM and a Kd (HLA-A*29:02) of no less than 20 µM. The Kd (HLA-A*68:02) was no less than 20 µM, the Kd (HLA-A*02:01) was 0.0018 µM and the Kd (HLA-A*02:12) was no less than 20 µM.
Work on YRHKNYYAL yielded a Kd (HLA-C*07:02; source organism: Vaccinia virus) of 0.057 µM.
YTLNNGGAF gave a Kd (HLA-A*26:01; [3]) of 0.0927 µM, a Kd (HLA-A*24:03 [2]) of 0.0151 µM and a Kd (HLA-B*15:01) of 0.0594 µM. The Kd (HLA-A*01:01) was no less than 20 µM, the Kd (HLA-C*06:02) was no less than 20 µM and the Kd (HLA-C*07:02; [3]) was 0.991 µM.
